In general, Kd refers to the constant that tells how readily two partners part at equilibrium. Higher therefore signals weaker binding. One may read the koff as the rate constant with which the complex falls apart. What is called kon is a measure of how fast the partners come together. Read a low kon as slow association. By t½ is commonly meant how long it takes for the measured level to halve.

The labels stand for the following.
T1: human GP130 extracellular domain expressed with a C-terminal mouse IgG2a Fc tag (hGP130-mFc) (human)
T1 construct: also called dimeric human GP130
T1 chain: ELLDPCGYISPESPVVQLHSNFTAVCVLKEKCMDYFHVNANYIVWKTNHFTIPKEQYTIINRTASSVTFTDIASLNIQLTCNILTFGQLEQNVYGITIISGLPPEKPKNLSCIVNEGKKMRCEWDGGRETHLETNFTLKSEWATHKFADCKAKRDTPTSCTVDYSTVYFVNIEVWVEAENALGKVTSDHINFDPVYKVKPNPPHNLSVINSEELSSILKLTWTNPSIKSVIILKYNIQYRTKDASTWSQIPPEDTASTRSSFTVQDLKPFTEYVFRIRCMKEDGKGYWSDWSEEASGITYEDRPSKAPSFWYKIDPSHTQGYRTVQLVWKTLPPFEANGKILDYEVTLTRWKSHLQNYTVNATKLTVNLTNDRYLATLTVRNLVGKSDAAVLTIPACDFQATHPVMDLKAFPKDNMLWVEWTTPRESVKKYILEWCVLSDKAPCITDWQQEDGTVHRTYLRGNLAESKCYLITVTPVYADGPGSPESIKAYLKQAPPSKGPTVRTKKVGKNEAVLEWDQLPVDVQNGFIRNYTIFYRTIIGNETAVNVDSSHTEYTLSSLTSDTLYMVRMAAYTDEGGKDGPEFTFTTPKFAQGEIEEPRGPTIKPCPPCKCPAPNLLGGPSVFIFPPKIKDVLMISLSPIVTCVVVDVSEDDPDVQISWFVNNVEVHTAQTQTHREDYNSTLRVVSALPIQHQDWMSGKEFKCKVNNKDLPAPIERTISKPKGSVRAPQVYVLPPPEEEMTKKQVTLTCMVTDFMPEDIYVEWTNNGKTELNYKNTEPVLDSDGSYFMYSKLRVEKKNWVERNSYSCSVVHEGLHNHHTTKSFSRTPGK

B1: MAb16665 (antibody, V domains shown)
VH: QVQLVESGGGVVQPGRSLRLACAASGFTFRSYGMHWVRQAPGKGLEWVAVIWYDGSNKYYTDSVKGRFTISRDNSKNTLYLQMNSLRAEDTAMYYCAIDKWATVTTYLFDYWGQGTLVTVSS
VL: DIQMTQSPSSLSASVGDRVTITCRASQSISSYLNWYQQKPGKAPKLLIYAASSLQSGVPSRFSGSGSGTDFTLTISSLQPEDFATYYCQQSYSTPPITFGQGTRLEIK
notes: captured through anti-human Fc
B2: MAb16666 (antibody, V domains shown)
VH: EVQLVESGGGLVQSGGSLRLSCAASGFTFSRYEMNWVRQAPGKGLEWVAYISNTGTTRDYSDSVKGRFTISRDNAKNSLYLQMSSLRVEDTAVYYCVREKFSGTSDWFDPWGQGTLVTVSS
VL: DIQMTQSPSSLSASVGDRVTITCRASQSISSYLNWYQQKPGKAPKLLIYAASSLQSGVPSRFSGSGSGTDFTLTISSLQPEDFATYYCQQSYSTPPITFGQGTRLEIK
notes: as for B1
B3: MAb16662 (antibody, V domains shown)
VH: EVQLVESGGGLVQPGGSLRLSCTASGFTFSNYAIFWVRQAPGKGLEYVSGISNNGVTKYYADSVRDRFTISRDNSRNTVSIQMDSLRTEDMAVYYCARENWGSDDGFDIWGQGTMVTVSS
VL: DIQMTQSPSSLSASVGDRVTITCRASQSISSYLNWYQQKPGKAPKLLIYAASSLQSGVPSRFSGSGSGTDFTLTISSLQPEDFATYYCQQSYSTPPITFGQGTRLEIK
notes: as for B1
B4: MAb16664 (antibody, V domains shown)
VH: QVQLVQSGTEVKKPGSSVKVSCKASGGTFSTYPINWVRQAPGQGLEWMGGIIPIFGTASYAQKFQGRVAITTDESTSTAYMELNSLRSEDTAVYYCARERPNWGSNDYWGQGTLVTVSS
VL: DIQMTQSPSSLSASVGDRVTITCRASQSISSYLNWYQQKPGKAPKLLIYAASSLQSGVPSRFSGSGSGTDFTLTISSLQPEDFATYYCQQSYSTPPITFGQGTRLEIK
notes: as for B1
B5: MAb16669 (antibody, V domains shown)
VH: EVQLVESGGGLVQPGGSLRLSCAASGFTFSSYAMNWVRQAPGKGLEWVSAISGSGDSTYYTDSVKGRFTISRDNSKNTLYLQMNTLRAEDTAVYYCAKEEIVMLVGATPGWFDPWGQGTLVTVSS
VL: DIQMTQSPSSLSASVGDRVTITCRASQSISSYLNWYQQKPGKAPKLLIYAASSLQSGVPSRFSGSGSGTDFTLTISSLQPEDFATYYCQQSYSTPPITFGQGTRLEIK
notes: as for B1
B6: MAb16673 (antibody, V domains shown)
VH: EVQLVQSGAEVKKPGESLKISCKGSGYSFTSYWIDWVRQMPGKGLEWMGIIYPDDSDTRYSPSFQGQVTMSVDKSISTAYLQWSSLKASDTAIYYCARHERGIVEAGTDYYYYYGMDVWGQGTTVTVSS
VL: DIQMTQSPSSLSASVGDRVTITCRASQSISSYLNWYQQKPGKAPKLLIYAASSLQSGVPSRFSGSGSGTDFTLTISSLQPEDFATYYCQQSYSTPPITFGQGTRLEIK
notes: as for B1
B7: MAb16659 (antibody, V domains shown)
VH: QVQLVQSGPEVKKPGSSVKVSCKASGGTIDRNEITWVRQAPGQGLEWMGVIIPILGEAHYERKFQGRLTITMDESTSTAYMELSNLRSEDTAVYYCARERAARGYLDYWGQGTLVTVSS
VL: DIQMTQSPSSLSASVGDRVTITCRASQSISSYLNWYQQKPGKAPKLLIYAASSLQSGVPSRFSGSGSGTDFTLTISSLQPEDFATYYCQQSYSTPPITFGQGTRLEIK
notes: as for B1
B8: MAb16676 (antibody, V domains shown)
VH: QVQLVQSGAEVMKPGASVKVSCRASGYTFSSYDINWVRQAPGQGLEWMGWISTATGNTNYPQKVQGRVTMTTDTSTNTAYMELRSLRSDDTAVYYCTREGNSKGWLDPWGQGTLVTVSS
VL: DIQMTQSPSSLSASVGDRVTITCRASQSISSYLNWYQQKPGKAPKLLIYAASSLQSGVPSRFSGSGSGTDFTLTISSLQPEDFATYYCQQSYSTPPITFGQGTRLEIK
notes: as for B1

The first test concerns the target T1, human GP130 extracellular domain …. Put plainly: SPR Biacore, mAb captured via anti-hFc, 25 C. The method, then:
(§1) Equilibrium dissociation constant (KD) for different GP130 reagents binding to purified anti-GP130 monoclonal antibodies were determined using a real-time surface plasmon resonance based Biacore 4000 biosensor. All binding studies were performed in 10 mM HEPES, 150 mM NaCl, 3 mM EDTA, and 0.05% v/v Surfactant Tween-20, pH 7.4 (HBS-ET) running buffer at 25° C. and 37° C. The Biacore sensor surface was first derivatized by amine coupling with a monoclonal mouse anti-human Fc antibody (GE, #BR-1008-39) to capture anti-GP130 monoclonal antibodies. […] Reagents tagged with “mmH” are monomeric, whereas reagents tagged with “mFc” are dimeric. Thus, for example, “hGP130-mmH” is also referred to as “monomeric human GP130,” and “hGP130-mFc” is also referred to as “dimeric human GP130.”
(§2) The association rate (k a) and dissociation rate (kd) were determined by fitting the real-time binding sensorgrams to a 1:1 binding model with mass transport limitation using Scrubber 2.0c curve-fitting software. Binding dissociation equilibrium constant (KD) and dissociative half-life (t ½) were calculated from the kinetic rates as: […]
B1: the “100 nM Ag Bound (RU)” value turned out to be 158 RU, the Kd came to 2.72 nM, the koff came out at 0.00109 s⁻¹ and the kon turned out to be 399000 M⁻¹ s⁻¹. This molecule also returned a t½ of 11 min.
In the same order, the values of B2 are 253 RU, 0.12 nM, 0.000137 s⁻¹, 1.14e+06 M⁻¹ s⁻¹ and 85 min.
For the molecule B3, the “100 nM Ag Bound (RU)” value worked out at 90 RU, the Kd was 0.772 nM, the koff turned out to be 0.000479 s⁻¹ and the kon was 620000 M⁻¹ s⁻¹. The t½ came to 24 min.
Taken in the same sequence, the figures for B4 were 26 RU, 0.116 nM, 0.000354 s⁻¹, 3.05e+06 M⁻¹ s⁻¹ and 33 min.
Taken in the same sequence, the figures for B5 were 40 RU, 8.21 nM, 0.000241 s⁻¹, 29300 M⁻¹ s⁻¹ and 48 min.
In the same order, the values of B6 are 169 RU, 0.173 nM, 9.66e-05 s⁻¹, 560000 M⁻¹ s⁻¹ and 120 min.
As for B7, the “100 nM Ag Bound (RU)” value is 186 RU, the Kd was found to be 0.0366 nM, the koff was found to be 6.28e-05 s⁻¹ and the kon was determined as 1.72e+06 M⁻¹ s⁻¹. For the same molecule, the t½ is 184 min.
For B8, the “100 nM Ag Bound (RU)” value was 119 RU, binding was characterised by a dissociation constant (Kd) of 0.0836 nM, the koff worked out at 7.13e-05 s⁻¹ and the kon was determined as 853000 M⁻¹ s⁻¹. The molecule also gave a t½ of 162 min.

Another test deals with T2, mouse GP130 extracellular domain expressed with a C-terminal myc-myc-hexahistidine tag (mGP130-mmH) (mouse, UniProt Q00560 23-617).
T2 construct: Monomeric; the entry includes the myc-myc-His tag
T2 sequence (Q00560 other isoform, or with tags, fused parts or gaps): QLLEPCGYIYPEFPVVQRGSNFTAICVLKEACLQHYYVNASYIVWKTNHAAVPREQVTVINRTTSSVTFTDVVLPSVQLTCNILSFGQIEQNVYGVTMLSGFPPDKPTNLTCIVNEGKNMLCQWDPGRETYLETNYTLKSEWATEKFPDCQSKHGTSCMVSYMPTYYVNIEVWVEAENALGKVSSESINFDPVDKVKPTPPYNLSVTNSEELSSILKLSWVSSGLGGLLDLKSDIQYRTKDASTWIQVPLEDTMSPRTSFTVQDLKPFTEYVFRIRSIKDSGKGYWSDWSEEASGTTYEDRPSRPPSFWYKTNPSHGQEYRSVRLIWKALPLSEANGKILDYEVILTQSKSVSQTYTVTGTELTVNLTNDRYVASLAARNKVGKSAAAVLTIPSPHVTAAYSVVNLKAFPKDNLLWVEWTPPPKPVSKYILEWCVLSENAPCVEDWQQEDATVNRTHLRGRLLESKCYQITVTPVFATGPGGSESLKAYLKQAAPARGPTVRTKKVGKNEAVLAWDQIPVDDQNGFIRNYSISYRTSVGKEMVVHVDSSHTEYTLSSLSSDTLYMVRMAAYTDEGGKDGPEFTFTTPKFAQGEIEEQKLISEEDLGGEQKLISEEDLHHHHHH
The test can be described thus: SPR Biacore, mAb captured via anti-hFc, 25 C. Here is the method:
as §1, §2
(Surface plasmon resonance follows binding to a sensor surface in real time, without labels.)
For the molecule B1, the “100 nM Ag Bound (RU)” value came to 0 RU.
Still for that read-out and setting: next, B2: 1 RU; B3: -1 RU; B4: 0 RU.
Take B5: the “100 nM Ag Bound (RU)” value worked out at 0 RU.
On the same count and under the same terms, under B6 stands 0 RU.
As for B7, the “100 nM Ag Bound (RU)” value is 1 RU.
Still for that read-out and setting: under B8 stands 0 RU.

The target in another test is T3, rat GP130 extracellular domain expressed with a C-terminal myc-myc-hexahistidine tag (rGP130-mmH) (rat, UniProt P40190 23-618).
T3 construct: Monomeric; the entry includes the myc-myc-His tag
T3 sequence (P40190 other isoform, or with tags, fused parts or gaps): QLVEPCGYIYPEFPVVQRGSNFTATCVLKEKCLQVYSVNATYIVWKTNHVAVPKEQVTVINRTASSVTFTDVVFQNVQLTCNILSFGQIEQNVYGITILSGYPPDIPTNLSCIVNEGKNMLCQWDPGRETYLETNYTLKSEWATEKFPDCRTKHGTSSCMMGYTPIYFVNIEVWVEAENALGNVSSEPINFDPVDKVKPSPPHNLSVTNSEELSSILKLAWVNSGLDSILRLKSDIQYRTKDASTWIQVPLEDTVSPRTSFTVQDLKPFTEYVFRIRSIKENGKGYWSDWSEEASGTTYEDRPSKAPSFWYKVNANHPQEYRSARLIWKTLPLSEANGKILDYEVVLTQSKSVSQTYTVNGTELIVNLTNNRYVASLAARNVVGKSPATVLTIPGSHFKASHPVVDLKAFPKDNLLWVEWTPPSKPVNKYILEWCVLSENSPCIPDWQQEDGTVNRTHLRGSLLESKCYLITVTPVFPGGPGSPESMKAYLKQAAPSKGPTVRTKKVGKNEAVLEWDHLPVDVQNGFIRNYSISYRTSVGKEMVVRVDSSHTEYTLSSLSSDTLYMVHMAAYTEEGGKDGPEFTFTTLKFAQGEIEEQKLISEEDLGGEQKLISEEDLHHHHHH
Put plainly: SPR Biacore, mAb captured via anti-hFc, 25 C. The method, then: as §1, §2
For B1, the “100 nM Ag Bound (RU)” value worked out at 0 RU.
Turning to B2, the “100 nM Ag Bound (RU)” value was found to be 1 RU and the binding result was “no binding (tested: 100 nM)”.
B3: the “100 nM Ag Bound (RU)” value is -1 RU.
B4: the “100 nM Ag Bound (RU)” value is 0 RU and the binding result was “no binding (tested: 100 nM)”.
Consider B5, for which the “100 nM Ag Bound (RU)” value is -2 RU.
For the molecule B6, the “100 nM Ag Bound (RU)” value turned out to be 0 RU and the binding result is reported as “no binding (tested: 100 nM)”.
In the same order, the values of B7 are 2 RU and “no binding (tested: 100 nM)”.
In the same order, the values of B8 are 0 RU and “no binding (tested: 100 nM)”.

Another test concerns the target T1, human GP130 extracellular domain …. Put plainly: SPR Biacore, mAb captured via anti-hFc, 37 C. Here is the method:
as §1, §2
Take B1: the “100 nM Ag Bound (RU)” value came out at 172 RU, binding was characterised by a dissociation constant (Kd) of 3.92 nM, the dissociation rate constant (koff) worked out at 0.00256 s⁻¹ and the association rate constant (kon) is 653000 M⁻¹ s⁻¹. This molecule came in with a t½ of 5 min.
Turning to B2, the “100 nM Ag Bound (RU)” value stood at 285 RU, the Kd came to 0.298 nM, the koff is 0.00036 s⁻¹ and the kon was found to be 1.21e+06 M⁻¹ s⁻¹. The same molecule came in with a t½ of 32 min.
For B3, the “100 nM Ag Bound (RU)” value worked out at 114 RU, the Kd came to 4.15 nM, the koff worked out at 0.00265 s⁻¹ and the kon came to 639000 M⁻¹ s⁻¹. This molecule also registered a t½ of 4 min.
Taken in the same sequence, the figures for B4 were 37 RU, 0.0815 nM, 0.000109 s⁻¹, 1.33e+06 M⁻¹ s⁻¹ and 106 min.
In the same order, the values of B5 are 59 RU, 5.85 nM, 0.00038 s⁻¹, 65100 M⁻¹ s⁻¹ and 30 min.
Taken in the same sequence, the figures for B6 were 199 RU, 0.457 nM, 0.000313 s⁻¹, 684000 M⁻¹ s⁻¹ and 37 min.
B7: the “100 nM Ag Bound (RU)” value turned out to be 227 RU, the Kd is 0.0249 nM, the koff turned out to be 4.76e-05 s⁻¹ and the kon is 1.91e+06 M⁻¹ s⁻¹. The molecule also yielded a t½ of 243 min.
Taken in the same sequence, the figures for B8 were 140 RU, 0.0566 nM, 9.45e-05 s⁻¹, 1.67e+06 M⁻¹ s⁻¹ and 122 min.

For the next test, the target named is T2, mouse GP130 extracellular domain …. Put plainly: SPR Biacore, mAb captured via anti-hFc, 37 C. The method, then: as §1, §2
For the molecule B1, the “100 nM Ag Bound (RU)” value was -1 RU.
With B2, the “100 nM Ag Bound (RU)” value worked out at 0 RU and the binding result is recorded as “no binding (tested: 100 nM)”.
Consider B3, for which the “100 nM Ag Bound (RU)” value stood at 1 RU.
In the case of B4, the “100 nM Ag Bound (RU)” value came out at 1 RU and the binding result was “no binding (tested: 100 nM)”.
In the case of B5, the “100 nM Ag Bound (RU)” value was -1 RU.
As to B6, the “100 nM Ag Bound (RU)” value came out at 1 RU and the binding result is “no binding (tested: 100 nM)”.
In the same order, the values of B7 are 1 RU and “no binding (tested: 100 nM)”.
For B8, the “100 nM Ag Bound (RU)” value turned out to be 0 RU and the binding result was “no binding (tested: 100 nM)”.

The target of the next test is T3, rat GP130 extracellular domain …. Put plainly: SPR Biacore, mAb captured via anti-hFc, 37 C. The method, then:
as §1, §2
B1: the “100 nM Ag Bound (RU)” value was -1 RU.
The same measure, in the same setting: under B2 stands 1 RU.
As for B3, the “100 nM Ag Bound (RU)” value turned out to be 1 RU.
Same read-out and setting: next, B4: 0 RU; B5: -2 RU; B6: 2 RU.
On the same count and under the same terms, next, B7: 1 RU; B8: 0 RU.
